These results are taken from patent US20220291215A1 (published 2022).

What all share (experiment): multimer staining
For assay [1], the target named is T1, HSD17B12 peptide on HLA-DPA1*01:03 / HLA-DPB1*04:01 (human).
T1 peptide: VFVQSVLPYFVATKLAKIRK

Assay [2] has as its target T2, CCND1 peptide on HLA-DPA1*01:03 / HLA-DPB1*04:01 (human).
T2 peptide: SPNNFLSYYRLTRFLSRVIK

The target of assay [3] is T3, LY6K peptide on HLA-DRA*01:01 / HLA-DRB1*01:01 (human).
T3 peptide: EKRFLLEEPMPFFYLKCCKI

Assay [4] deals with T4, LGSN peptide on HLA-DPA1*01:03 / HLA-DPB1*04:01 (human).
T4 peptide: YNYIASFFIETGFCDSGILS

The target in assay [5] is T5, MAGE-A2 peptide on HLA-DPA1*01:03 / HLA-DPB1*04:01 (human).
T5 peptide: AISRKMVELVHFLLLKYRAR

The target of assay [6] is T6, MUC5AC peptide on HLA-DPA1*01:03 / HLA-DPB1*04:01 (human).
T6 peptide: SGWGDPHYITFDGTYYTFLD

B1: 05-HSD17B12225-244 (TCR)
alpha TRAV22*01 TRAJ18*01 CDR3: CAVAPYDRGSTLGRLYF
beta TRBV19*01 TRBJ2-5*01 CDR3: CASSTGQGLETQYF
Take B1: the binding result in assay [1] was “recognises”.

B2: 03-CCND1219-238 (TCR)
alpha TRAV2*01 TRAJ21*01 CDR3: CAVCTLYNFNKFYF
beta TRBV6-5*01 TRBJ2-1*01 CDR3: CASLTDNNEQFF
As to B2, in assay [2], the binding result was “recognises”.

B3: DR1-08-LY6K99-118 (TCR)
alpha TRAV38-2/DV8*01 TRAJ52*01 CDR3: CAYRSFLNAGGTSYGKLTF
beta TRBV20-1*01 TRBJ1-6*01 CDR3: CAASRESKWSSYNSPLHF
For B3, in assay [3], the binding result is listed as “recognises”.

B4: 05-LGSN296-315 (TCR)
alpha TRAV9-2*03 TRAJ32*01 CDR3: CALSDLSYGGATNKLIF
beta TRBV27*01 TRBJ1-5*01 CDR3: CASSKGQGLGNQPQHF
As for B4, the binding result in assay [4] was “recognises”.

B5: 03-MAGE-A2108-127 (TCR)
alpha TRAV36/DV7*04 TRAJ40*01 CDR3: CAVEVNSGTYKYIF
beta TRBV2*01 TRBJ1-1*01 CDR3: CASRRDLAAFF
For the molecule B5, in assay [5], the binding result is listed as “recognises”.

B6: 06-MAGE-A2108-127 (TCR)
alpha TRAV19*01 TRAJ40*01 CDR3: CALSVGTYKYIF
beta TRBV7-9*01 TRBJ2-5*01 CDR3: CASSPGTGGRETQYF
On to B6, for which the binding result in assay [5] is on record as “recognises”.

B7: 05-MUC5AC4922-4941 (TCR)
Valpha: QTVTQSQPEMSVQEAETVTLSCTYDTSESNYYLFWYKQPPSRQMILVIRQEAYKQQNATENRFSVNFQKAAKSFSLKISDSQLGDTAMYFCAFMKRAETSGSRLTFGEGTQLTVNP
beta TRBV6-2*01 TRBJ2-5*01 CDR3: CASSYWPTRETQYF
For B7, in assay [6], the binding result is reported as “recognises”.
